Reference: US20240301062A1 (BEIGENE SWITZERLAND, published 2024)

T1: Cyno CDεγ (recombinant cynomolgus CD3εγ) (cyno, UniProt Q95LI5 22-117; Q95LI7 23-113)
T1 construct: Printed as CDεγ; read as CD3εγ
T1 sequence (looked up) 1: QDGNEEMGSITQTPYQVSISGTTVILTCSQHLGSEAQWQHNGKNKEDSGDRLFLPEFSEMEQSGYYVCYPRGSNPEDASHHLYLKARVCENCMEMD
T1 sequence (looked up) 2: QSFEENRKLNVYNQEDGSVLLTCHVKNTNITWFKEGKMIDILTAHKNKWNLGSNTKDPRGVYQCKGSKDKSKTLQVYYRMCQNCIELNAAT

T2: human claudin 6 (CLDN6) (human, UniProt P56747 1-220)
T2 construct: also called human CLDN6; hCLDN6
T2 sequence: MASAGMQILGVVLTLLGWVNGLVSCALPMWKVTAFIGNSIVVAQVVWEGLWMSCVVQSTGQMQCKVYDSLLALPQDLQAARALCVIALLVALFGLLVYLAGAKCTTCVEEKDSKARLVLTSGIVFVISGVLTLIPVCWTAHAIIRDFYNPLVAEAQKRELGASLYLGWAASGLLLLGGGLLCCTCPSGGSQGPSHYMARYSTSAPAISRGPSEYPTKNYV

T3: human claudin 9 (CLDN9) (human, UniProt O95484 1-217)
T3 construct: also called human CLDN9
T3 sequence: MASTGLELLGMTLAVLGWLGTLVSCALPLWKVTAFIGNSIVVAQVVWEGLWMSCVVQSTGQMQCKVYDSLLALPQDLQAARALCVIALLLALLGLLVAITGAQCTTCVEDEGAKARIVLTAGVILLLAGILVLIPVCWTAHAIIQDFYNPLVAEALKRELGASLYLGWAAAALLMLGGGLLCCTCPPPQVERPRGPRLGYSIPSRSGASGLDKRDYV

T4: mouse CLDN6 (mouse, UniProt Q9Z262 1-219)
T4 construct: whole, on cells
T4 sequence (looked up): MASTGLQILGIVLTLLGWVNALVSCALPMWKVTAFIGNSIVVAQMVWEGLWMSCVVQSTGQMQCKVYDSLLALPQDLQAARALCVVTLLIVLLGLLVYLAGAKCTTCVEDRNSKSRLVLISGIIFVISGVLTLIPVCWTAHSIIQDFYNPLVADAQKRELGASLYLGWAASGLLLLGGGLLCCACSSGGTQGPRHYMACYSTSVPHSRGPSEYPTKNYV

B1: CLDN6xCD3 BsAb BG143P (bispecific antibody, human IgG1, kappa)
chain: EVQLVESGGGLVQPGGSLRLSCAASGFTFSTYAMNWVRQAPGKGLEWVGRIRSKYNNYATYYADSVKGRFTISRDDAKNSLYLQMNSLRAEDTAVYYCVRHGNFGSSYVSWFAYWGQGTLVTVSSGGGGSGGGGSGGGGSEIVVTQSPATLSVSPGERATLSCRSSTGAVTTSNYANWVQQKPGQAPRGLIGGTNKRAPGIPARFSGSLSGDEATLTISSLQSEDFAVYYCALWYSNLWVFGGGTKVEIKEPKSSDKTHTCPPCPAPPAAGPSVFLFPPKPKDTLMISRTPEVTCVVVDVSHEDPEVKFNWYVDGVEVHNAKTKPREEQYNSTYRVVSVLTVLHQDWLNGKEYKCKVSNKALAAPIEKTISKAKGQPREPQVYTLPPSRDELTKNQVSLWCLVKGFYPSDIAVEWESNGQPENNYKTTPPVLDSDGSFFLYSKLTVDKSRWQQGNVFSCSVMHEALHNHYTQKSLSLSPGK
heavy: EVQLQESGGGLVQPGGSLRLSCAASGYSFSDYHINWVRQAPGKGLEWVGYIYPGSGHTKYNEKFKGRFTISRDTSSNTAYLQMNSLRAEDTAVYYCARSGIYHYVSSYYFDHWGQGTLVTVSSASTKGPSVFPLAPSSKSTSGGTAALGCLVKDYFPEPVTVSWNSGALTSGVHTFPAVLQSSGLYSLSSVVTVPSSSLGTQTYICNVNHKPSNTKVDKKVEPKSCDKTHTCPPCPAPPAAGPSVFLFPPKPKDTLMISRTPEVTCVVVDVSHEDPEVKFNWYVDGVEVHNAKTKPREEQYNSTYRVVSVLTVLHQDWLNGKEYKCKVSNKALAAPIEKTISKAKGQPREPQVYTLPPSRDELTKNQVSLSCAVKGFYPSDIAVEWESNGQPENNYKTTPPVLDSDGSFFLVSKLTVDKSRWQQGNVFSCSVMHEALHNHYTQKSLSLSPGK
light: DIQMTQSPSSLSASVGDRVTITCKASQDAGSAVAWYQQKPGKAPKLLIYWASTRHTGVPSRFSGSGSGTDFTLTISSLQPEDFATYYCQQYSSYTFGGGTKLEIKRTVAAPSVFIFPPSDEQLKSGTASVVCLLNNFYPREAKVQWKVDNALQSGNSQESVTEQDSKDSTYSLSSTLTLSKADYEKHKVYACEVTHQGLSSPVTKSFNRGEC
notes: module ratio 1:1, Fc null huIgG1, knob into hole; also called CLDN6×CD3 BsAb; CLDN6×CD3 antibody
B2: BG87P (mouse anti-CLDN6 antibody, hybridoma clone) (antibody, V domains shown)
VH: QIQLQQSGPELVKPGASVKISCKASGYSFTDYHINWVKQRPGQGLEWIGWIYPGSGYTKYNEKFKVKATLTVDTSSSTAYMHLTSLTSEDSAVYFCARSGIYHYVSSYYFDHWGQGTTLTVSS
VL: DIVMTQSHTFMSTSVGDRVSITCKASQDVGTAVAWYQQKPGQSPKLLIYWASTRHTGVPDRFTGSGSGTDFTLTISNVQSEDLADYFCQQYSSYTFGGGTKLEIK
notes: Mouse antibody purified from hybridoma supernatant on protein A; also called clone BG87P

Key:
[1] = target: T5, Human CDεγ (recombinant human CD3εγ) (human, UniProt P07766 23-126; P09693 23-116); assay: SPR, recombinant protein
T5 construct: Printed as CDεγ; read as CD3εγ
Description: (§1) The binding kinetics of CLDN6×CD3 BsAb BG143P were measured using SPR. SPR was used to measure the on-rate constant (kₐ) and off-rate constant (kd) of the antibodies to recombinant proteins of CDεγ and then determined the affinity constant (KD).

[2] = target: T1, Cyno CDεγ (recombinant cynomolgus CD3εγ); assay: SPR, recombinant protein
Description: as §1

[3] = target: T6, human native CD3 on live cells (HuT78, Jurkat) (human, UniProt P07766 23-207; P09693 23-182; P04234 22-171); assay: FACS, CD3-expressing Jurkat cells
T6 construct: whole, on cells; also called human CD3

[4] = target: T2, human claudin 6 (CLDN6); assay: FACS, CLDN6-expressing PA-1 cells
[5] = target: T3, human claudin 9 (CLDN9); assay: flow cytometry on NCI-H1299 cells stably expressing human CLDN9, anti-human Fc gamma secondary, MFI (AF647) [right panel]
Description: Expressing vectors of human CLDN6 and CLDN9 were established by inserting synthesized cDNA coding corresponding sequences into mammalian expression vector. NCI-H1299 stable cells expressing human CLDN6 and CLDN9 were generated by transfection of corresponding plasmids. Cells were suspended at a concentration of 1×10⁶ cells in FACS buffer (2% FBS, 1×PBS), and the cell suspension was dispensed into a U-bottom 96-well plate ([…]). Antibody was added thereto at final top concentration of 100 nM and 2× dilute for 11 dilutions, then mixed with cells and incubated at 4° C. for 1 hour. After centrifugation, the reaction solution was removed, and the cells were washed twice with 200 μL/well FACS buffer. Then, APC-anti human Fcγ was diluted 500-fold with FACS buffer and added as secondary antibodies to the cells. The cells were incubated at 4° C. for 30 mins, then washed twice as above, and suspended in 100 μL FACS buffer. The cell suspension was subjected to flow cytometry.

[6] = target: T3, human claudin 9 (CLDN9); assay: flow cytometry, CHOK1/human CLDN9-GFP cells
[7] = target: T7, cyno CLDN6 (cyno); assay: flow cytometry, CHOK1/Cyno CLDN6-GFP cells
T7 construct: whole, on cells; also called cynomolgus CLDN6

[8] = target: T2, human claudin 6 (CLDN6); assay: flow cytometry, CHOK1/human CLDN6-GFP cells
[9] = target: T4, mouse CLDN6; assay: flow cytometry, CHOK1/mouse CLDN6-GFP cells
[10] = target: T2, human claudin 6 (CLDN6); assay: flow cytometry, PA-1 cells (endogenous CLDN6)

T5 sequence (P07766 23-126, chain 1 of 2): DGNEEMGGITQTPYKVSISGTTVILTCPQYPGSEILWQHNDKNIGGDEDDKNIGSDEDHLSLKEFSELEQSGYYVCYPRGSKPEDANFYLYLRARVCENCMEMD
T5 sequence (P09693 23-116, chain 2 of 2): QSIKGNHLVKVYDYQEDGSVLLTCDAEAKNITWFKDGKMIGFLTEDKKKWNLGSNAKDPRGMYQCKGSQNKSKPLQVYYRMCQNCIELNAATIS
T6 sequence (P07766 23-207, chain 1 of 3): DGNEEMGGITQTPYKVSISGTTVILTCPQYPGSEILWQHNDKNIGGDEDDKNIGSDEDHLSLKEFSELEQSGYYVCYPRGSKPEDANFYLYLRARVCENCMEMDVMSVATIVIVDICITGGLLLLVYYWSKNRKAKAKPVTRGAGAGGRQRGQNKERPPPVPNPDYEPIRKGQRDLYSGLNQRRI
T6 sequence (P09693 23-182, chain 2 of 3): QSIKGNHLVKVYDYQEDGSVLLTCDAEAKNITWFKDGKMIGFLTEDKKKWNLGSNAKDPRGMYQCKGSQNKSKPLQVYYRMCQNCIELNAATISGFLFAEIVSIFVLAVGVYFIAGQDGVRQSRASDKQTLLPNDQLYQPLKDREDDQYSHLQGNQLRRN
T6 sequence (P04234 22-171, chain 3 of 3): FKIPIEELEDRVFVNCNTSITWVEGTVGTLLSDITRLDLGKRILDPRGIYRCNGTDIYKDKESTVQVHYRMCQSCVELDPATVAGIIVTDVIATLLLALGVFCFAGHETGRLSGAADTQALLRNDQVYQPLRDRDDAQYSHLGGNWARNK

| Binder | Kd [1] [nM] | koff [1] [s⁻¹] | kon [1] [M⁻¹ s⁻¹] | Kd [2] [nM] | koff [2] [s⁻¹] | kon [2] [M⁻¹ s⁻¹] | EC50 [3] [nM] | EC50 [4] [nM] | binding result [5] | binding result [6] | EC50 [7] [nM] | EC50 [8] [nM] | EC50 [9] [nM] | EC50 [10] [nM] |
| --- | --- | --- | --- | --- | --- | --- | --- | --- | --- | --- | --- | --- | --- | --- |
| B1 | 8.31 | 0.0181 | 2.17e+06 | 4.55 | 0.00599 | 1.32e+06 | 6.98 | 81.3 | no binding (tested: 100 nM) |  |  |  |  |  |
| B2 |  |  |  |  |  |  |  |  |  | no binding | 6.08 | 3.41 | 94.7 | 3.38 |
